Experimental findings from paper doi:10.1101/2025.01.27.635100 (bioRxiv, 2025) are described below.

B3: P2 (PIH1D2), His tag cleaved, co-purified with S1’ (natural protein)
chain: METSSKGLLTQVTQFWNLLDDLAQSDPEGYEKFIQQQLKEGKQLCAAPEPQLCLQTRILKPKEKILFINLCQWTRIPAPQSTTHPVPLTVGKPEDTTEISDAYTVIDVAYNPDVLHAAEKDQVKKNQLIQMAMKCIEEKFQFTLSHSYHITKFRIKGSIQRMKQNLMGIQTDSIDLREKMRRELTLGQIRSSTMSNPDHFPQLLLPKDQVSGKAVCLIEEISSTEIQVEMKMPAYELKIVHDHSEKPLKIELKVELPGINSVSLCDLSVSEDDLLIEVSEKYRLHLNLPKLIDTEMTTAKFIKEKSTLIITMPLV

Values joined by “and” are separate entries in the source; they are usually repeats but may differ in a detail not shown here. Equal values may be shown once.

For experiment [1], the target named is R1^D302N R2^D299N complex, double active site mutant (no hydrolysis, ATP loaded) (human, UniProt Q9Y265;Q9Y230, D302N | D299N). Put plainly: SPR.
The target of experiment [2] is RUVBL2 (R2) as a chain of the reconstituted R2S’P sample (human, UniProt Q9Y230 1-463). Put plainly: cross-linking.
For experiment [3], the target named is B3. Description: cross-linking.
For experiment [4], the target named is RUVBL1 (R1) as a chain of the reconstituted R2S’P sample (human, UniProt Q9Y265 1-456). Description: cross-linking.
In experiment [5] the target is T1, R1R2 hetero-hexamer (pETDuet:His-R1R2-FH8), preparation for cryo-EM, native MS, mass photometry and XL-MS (human, UniProt Q9Y265;Q9Y230). Description: native MS.
The target of experiment [6] is T1, R1R2 hetero-hexamer …. Put plainly: mass photometry.
The target of experiment [7] is R1R2 complex (6xHis-R1, 3xFLAG-R2), unlabeled, NMR interaction experiments (human, UniProt Q9Y265;Q9Y230). Put plainly: NMR titration.
For experiment [8], the target named is T2, S1’’ (S1_(622-762)), extended version of S1_TPR3 (human, UniProt Q07617 622-762).
T2 sequence: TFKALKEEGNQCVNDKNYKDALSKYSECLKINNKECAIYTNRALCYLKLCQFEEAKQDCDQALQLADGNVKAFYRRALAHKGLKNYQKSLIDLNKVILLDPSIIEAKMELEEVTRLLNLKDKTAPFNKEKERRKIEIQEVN
Put plainly: NMR.

T1 sequence (Q9Y265 whole entry, chain 1 of 2): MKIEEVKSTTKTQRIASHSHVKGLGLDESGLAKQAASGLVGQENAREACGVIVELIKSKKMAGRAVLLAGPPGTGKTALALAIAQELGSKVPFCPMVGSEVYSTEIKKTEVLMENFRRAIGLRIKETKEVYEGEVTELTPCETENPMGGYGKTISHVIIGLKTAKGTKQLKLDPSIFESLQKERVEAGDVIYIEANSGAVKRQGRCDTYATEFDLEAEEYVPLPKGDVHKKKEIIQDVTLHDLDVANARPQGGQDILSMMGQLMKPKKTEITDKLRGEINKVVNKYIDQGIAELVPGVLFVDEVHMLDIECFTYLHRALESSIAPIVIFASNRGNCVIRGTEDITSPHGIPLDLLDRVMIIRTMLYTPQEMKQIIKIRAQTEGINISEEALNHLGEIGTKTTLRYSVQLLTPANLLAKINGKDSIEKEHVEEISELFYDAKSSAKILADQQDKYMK
T1 sequence (Q9Y230 whole entry, chain 2 of 2): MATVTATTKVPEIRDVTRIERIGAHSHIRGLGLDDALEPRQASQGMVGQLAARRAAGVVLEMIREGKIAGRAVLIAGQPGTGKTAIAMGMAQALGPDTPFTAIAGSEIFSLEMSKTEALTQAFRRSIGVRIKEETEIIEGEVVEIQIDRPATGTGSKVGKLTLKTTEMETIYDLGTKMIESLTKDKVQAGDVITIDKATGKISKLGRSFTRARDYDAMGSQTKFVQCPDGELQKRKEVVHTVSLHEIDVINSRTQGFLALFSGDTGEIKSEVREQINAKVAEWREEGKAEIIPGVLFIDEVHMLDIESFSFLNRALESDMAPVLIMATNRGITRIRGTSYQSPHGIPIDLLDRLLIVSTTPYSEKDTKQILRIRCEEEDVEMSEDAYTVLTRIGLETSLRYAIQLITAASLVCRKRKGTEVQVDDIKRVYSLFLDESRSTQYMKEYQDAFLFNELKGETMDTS
R1^D302N R2^D299N complex, double active site mutant (no hydrolysis, ATP loaded), sequence (Q9Y265 whole entry D302N, chain 1 of 2): as the sequence (Q9Y265 whole entry, chain 1 of 2) above, with D302N counted along it
R1^D302N R2^D299N complex, double active site mutant (no hydrolysis, ATP loaded), sequence (Q9Y230 whole entry D299N, chain 2 of 2): as the sequence (Q9Y230 whole entry, chain 2 of 2) above, with D299N counted along it
RUVBL2 (R2) as a chain of the reconstituted R2S’P sample, sequence (Q9Y230 whole entry): as the sequence (Q9Y230 whole entry, chain 2 of 2) above
R1R2 complex (6xHis-R1, 3xFLAG-R2), unlabeled, NMR interaction experiments, sequence (Q9Y265 whole entry, chain 1 of 2): as the sequence (Q9Y265 whole entry, chain 1 of 2) above
R1R2 complex (6xHis-R1, 3xFLAG-R2), unlabeled, NMR interaction experiments, sequence (Q9Y230 whole entry, chain 2 of 2): as the sequence (Q9Y230 whole entry, chain 2 of 2) above
RUVBL1 (R1) as a chain of the reconstituted R2S’P sample, sequence (Q9Y265 whole entry): as the sequence (Q9Y265 whole entry, chain 1 of 2) above

B1: S1’P2 heterodimer, SPR preparation (complex)
chain 1: TFKALKEEGNQCVNDKNYKDALSKYSECLKINNKECAIYTNRALCYLKLCQFEEAKQDCDQALQLADGNVKAFYRRALAHKGLKNYQKSLIDLNKVILLDPSIIEAKMELEEVTRLLNLKDKTAPFNKEKERRKIEIQEVNEGKEEPGRPAGEVSMGCLASEKGGKSSRSPEDPEKLPIAKPNNAYEFGQIINALSTRKDKEACAHLLAITAPKDLPMFLSNKLEGDTFLLLIQSLKNNLIEKDPSLVYQHLLYLSKAERFKMMLTLISKGQKELIEQLFEDLSDTPNNHFTLEDIQALKRQYEL
chain 2: METSSKGLLTQVTQFWNLLDDLAQSDPEGYEKFIQQQLKEGKQLCAAPEPQLCLQTRILKPKEKILFINLCQWTRIPAPQSTTHPVPLTVGKPEDTTEISDAYTVIDVAYNPDVLHAAEKDQVKKNQLIQMAMKCIEEKFQFTLSHSYHITKFRIKGSIQRMKQNLMGIQTDSIDLREKMRRELTLGQIRSSTMSNPDHFPQLLLPKDQVSGKAVCLIEEISSTEIQVEMKMPAYELKIVHDHSEKPLKIELKVELPGINSVSLCDLSVSEDDLLIEVSEKYRLHLNLPKLIDTEMTTAKFIKEKSTLIITMPLV
Turning to B1, the binding result in experiment [1] is on record as “binds”.

B2: S1’ (SPAG1 622-926), untagged, co-expressed with His-P2 (domain or fragment)
chain: TFKALKEEGNQCVNDKNYKDALSKYSECLKINNKECAIYTNRALCYLKLCQFEEAKQDCDQALQLADGNVKAFYRRALAHKGLKNYQKSLIDLNKVILLDPSIIEAKMELEEVTRLLNLKDKTAPFNKEKERRKIEIQEVNEGKEEPGRPAGEVSMGCLASEKGGKSSRSPEDPEKLPIAKPNNAYEFGQIINALSTRKDKEACAHLLAITAPKDLPMFLSNKLEGDTFLLLIQSLKNNLIEKDPSLVYQHLLYLSKAERFKMMLTLISKGQKELIEQLFEDLSDTPNNHFTLEDIQALKRQYEL
In the case of B2, the binding result in experiment [2] and in experiment [3] was “binds” throughout.
Consider B3, for which the binding result in experiment [2] and in experiment [4] was “binds” each time.

B4: S1’P2 heterodimer, preparation for cryo-EM, native MS, mass photometry and XL-MS (complex)
chain 1: TFKALKEEGNQCVNDKNYKDALSKYSECLKINNKECAIYTNRALCYLKLCQFEEAKQDCDQALQLADGNVKAFYRRALAHKGLKNYQKSLIDLNKVILLDPSIIEAKMELEEVTRLLNLKDKTAPFNKEKERRKIEIQEVNEGKEEPGRPAGEVSMGCLASEKGGKSSRSPEDPEKLPIAKPNNAYEFGQIINALSTRKDKEACAHLLAITAPKDLPMFLSNKLEGDTFLLLIQSLKNNLIEKDPSLVYQHLLYLSKAERFKMMLTLISKGQKELIEQLFEDLSDTPNNHFTLEDIQALKRQYEL
chain 2: METSSKGLLTQVTQFWNLLDDLAQSDPEGYEKFIQQQLKEGKQLCAAPEPQLCLQTRILKPKEKILFINLCQWTRIPAPQSTTHPVPLTVGKPEDTTEISDAYTVIDVAYNPDVLHAAEKDQVKKNQLIQMAMKCIEEKFQFTLSHSYHITKFRIKGSIQRMKQNLMGIQTDSIDLREKMRRELTLGQIRSSTMSNPDHFPQLLLPKDQVSGKAVCLIEEISSTEIQVEMKMPAYELKIVHDHSEKPLKIELKVELPGINSVSLCDLSVSEDDLLIEVSEKYRLHLNLPKLIDTEMTTAKFIKEKSTLIITMPLV
Turning to B4, the stoichiometry N (as a rule, a count of units in the complex or per binding partner) in experiment [5] was 1 S’P2 per R1R2 hexamer and 2 S’P2 per R1R2 hexamer; in experiment [6], 1 S1’P2 per R1R2 hexamer and 2 S1’P2 per R1R2 hexamer and 1 S1’P2 per R1R2 dodecamer and 2 S1’P2 per R1R2 dodecamer.

B5: S1’P2_(231-315) heterodimer, SPR preparation (complex)
chain 1: TFKALKEEGNQCVNDKNYKDALSKYSECLKINNKECAIYTNRALCYLKLCQFEEAKQDCDQALQLADGNVKAFYRRALAHKGLKNYQKSLIDLNKVILLDPSIIEAKMELEEVTRLLNLKDKTAPFNKEKERRKIEIQEVNEGKEEPGRPAGEVSMGCLASEKGGKSSRSPEDPEKLPIAKPNNAYEFGQIINALSTRKDKEACAHLLAITAPKDLPMFLSNKLEGDTFLLLIQSLKNNLIEKDPSLVYQHLLYLSKAERFKMMLTLISKGQKELIEQLFEDLSDTPNNHFTLEDIQALKRQYEL
chain 2: KMPAYELKIVHDHSEKPLKIELKVELPGINSVSLCDLSVSEDDLLIEVSEKYRLHLNLPKLIDTEMTTAKFIKEKSTLIITMPLV
Consider B5, for which, in experiment [1], the binding result is “binds”.

B6: S1_C (SPAG1 796-926), isotope-labelled NMR sample (domain or fragment)
chain: EKLPIAKPNNAYEFGQIINALSTRKDKEACAHLLAITAPKDLPMFLSNKLEGDTFLLLIQSLKNNLIEKDPSLVYQHLLYLSKAERFKMMLTLISKGQKELIEQLFEDLSDTPNNHFTLEDIQALKRQYEL
For B6, in experiment [7], the binding result is given as “binds”.

B7: P2_CS domain (P2_(231-315)) (domain or fragment)
chain: KMPAYELKIVHDHSEKPLKIELKVELPGINSVSLCDLSVSEDDLLIEVSEKYRLHLNLPKLIDTEMTTAKFIKEKSTLIITMPLV
As for B7, in experiment [8], the binding result is reported as “binds”.
